Measurements published in patent US20080064048A1, “Methods for Selecting Proteins that are Readily Presented as Antigens on Dendritic Cells” (Medical and Biological Laboratories, Co., Ltd., priority 2004, published 2008).

What was measured:
Sec61β = target: T1, Sec61β (Mus musculus, UniProt Q9CQS8); test: Co-immunoprecipitation of bOVA with anti-Sec61β; format: binding
T1 construct: endogenous in cells; host or cells: DC2.4 mouse dendritic cell line; bone marrow-derived dendritic cells
Procedure: 2×10^7 DC2.4 or BMDC cells were cultured for four hours in a medium containing 10 μM MG-132 in the presence of bOVA at 250 μg mL^−1. Cells were lysed in 20 mM HEPES pH7.6 containing 1% digitonin and protease inhibitors to collect biotin-labeled samples. The samples were cleared of impurities in advance using protein G sepharose (Amersham Pharmacia Biotech), and after incubation with antibodies for precipitation (anti-Sec61β, anti Sec61α, anti-VCP, anti-BiP, anti-PDI, anti-calreticulin, anti-TAP1, and anti-TAP2), the immunoprecipitates were collected using protein G. When chicken anti-CHIP antibody was used, immunoprecipitates were collected using a rabbit anti-IgY column (a person, MBL). The precipitated samples were analyzed by SDS-PAGE and Western blotting.

OT-I CD8+ T cells = test: Antigen presentation level: IL-2 production by OT-I CD8+ T cells (ELISA); format: cell-based, mouse; conditions: DC2.4, dose-response OVA vs bOVA
From the text: Whether knock-down of cellular components involved in ERAD decreases the cross-presentation of exogenous OVA antigen was examined using a system for evaluating the level of antigen presentation, which uses naive CD8^+ T cells from OT-I mice and DC2.4 cells. The DC2.4 cells used as a model of dendritic cells are of the H-2 Kb mouse MHC class I haplotype. OT-I (H-2 Kb) mice are transgenic mice expressing a T cell receptor (TCRα and β) that recognizes an antigenic peptide (SIINFEKL) (SEQ ID NO: 15) derived from OVA presented on the H-2 Kb molecules. The CD8^+ cells of OT-I mice are activated when they recognize OVA peptides presented by BMDCs derived from H-2 Kb mice or by DC2.4 cells. When OVA or bOVA is incubated with and affixed onto DC2.4 cells and the cells are further incubated with naive CD8^+ T cells of OT-I mice, the amount of IL-2 produced by OT-I CD8^+ T cells serves as an index of T-cell stimulation as a result of OVA antigen presented by DC2.4 cells.
Parental or knocked-down DC2.4 cells were pre-incubated in a culture medium supplemented with 50 μg mL^−1 polymyxin B for 30 minutes in the presence or absence of lactacystin or MG-132, and incubated with OVA (250 μg mL^−1) or SIINFEKL (SEQ ID NO: 15) peptides (10 ng mL^−1) for six hours. The cells were washed, fixed with 1% paraformaldehyde, and aliquoted into microtiter plates (5×10^4 per well). 5×10^4 CD8^+ T cells purified from splenocytes of OT-1 mice using magnetic beads were added to each well and after a 24-hour incubation, the IL-2 secretion was measured by ELISA (BD Biosciences) in triplicate. […]

T1 sequence (Q9CQS8 2-96 limits assumed): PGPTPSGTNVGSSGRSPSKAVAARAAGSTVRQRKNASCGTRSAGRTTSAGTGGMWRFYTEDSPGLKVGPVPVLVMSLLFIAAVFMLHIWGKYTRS
T1 sequence (P61620 whole entry partner): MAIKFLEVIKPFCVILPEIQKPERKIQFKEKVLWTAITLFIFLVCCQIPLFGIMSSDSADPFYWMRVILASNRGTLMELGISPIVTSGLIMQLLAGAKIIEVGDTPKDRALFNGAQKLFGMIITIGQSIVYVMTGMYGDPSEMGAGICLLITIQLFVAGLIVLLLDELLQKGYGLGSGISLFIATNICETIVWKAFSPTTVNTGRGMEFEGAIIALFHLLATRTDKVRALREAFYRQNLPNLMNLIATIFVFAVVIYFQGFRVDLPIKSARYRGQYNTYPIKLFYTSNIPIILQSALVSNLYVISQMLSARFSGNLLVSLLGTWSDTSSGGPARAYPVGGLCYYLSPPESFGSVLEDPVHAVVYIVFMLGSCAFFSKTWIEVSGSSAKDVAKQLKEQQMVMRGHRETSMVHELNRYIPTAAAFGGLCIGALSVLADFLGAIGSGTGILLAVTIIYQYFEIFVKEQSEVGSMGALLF
T1 sequence (P60060 whole entry partner): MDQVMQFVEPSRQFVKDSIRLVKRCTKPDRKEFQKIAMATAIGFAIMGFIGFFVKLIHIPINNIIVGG
Procedure for DC2.4 cells: Intracellular localization of foreign antigens was examined by cell fractionation methods. Chicken ovalbumin (OVA) was used as an antigen model, and DC2.4 (haplotype H-2 Kb), a cultured cell line of mouse dendritic cells, was used as a model for dendritic cells. […] BMDCs with a haplotype of H-2 Kb, the same as that of DC2.4, were used as the control. BMDCs were induced from the bone marrow cells of C57BL/6 mice (SLC) in RPMI-1640 supplemented with 5% FCS using 5 ng/mL GM-CSF (MBL), and those cells purified by magnetic beads after five days of culturing were used.
DC2.4 cells made to take up bOVA antigens were suspended in 10 mM Tris-HCl (pH7.4) containing 250 mM sucrose, this was homogenized using glass beads, centrifuged for 30 minutes at 250,000×g, and then fractionated. The supernatant was used as the soluble fraction; the precipitates were suspended in the same buffer as described above and used as the microsomal fraction. A fixed amount was incubated in the presence or absence of 1% TritonX-100, and together with or without 100 μg mL^−1 trypsin. Before collecting bOVA, soybean trypsin inhibitor (Sigma) was added at 500 μg mL^−1.

B1: bOVA: biotin-labeled OVA antigen (protein)
chain: GSIGAASMEFCFDVFKELKVHHANENIFYCPIAIMSALAMVYLGAKDSTRTQINKVVRFDKLPGFGDSIEAQCGTSVNVHSSLRDILNQITKPNDVYSFSLASRLYAEERYPILPEYLQCVKELYRGGLEPINFQTAADQARELINSWVESQTNGIIRNVLQPSSVDSQTAMVLVNAIVFKGLWEKAFKDEDTQAMPFRVTEQESKPVQMMYQIGLFRVASMASEKMKILELPFASGTMSMLVLLPDEVSGLEQLESIINFEKLTEWTSSNVMEERKIKVYLPRMKMEEKYNLTSVLMAMGITDVFSSSANLSGISSAESLKISQAVHAAHAEINEAGREVVGSAEAGVDAASVSEEFRADHPFLFCIKHIATNAVLFFGRCVSP
- interaction with Sec61β (co-immunoprecipitation) (Sec61β; BMDCs): interacts
- interaction with Sec61β (co-immunoprecipitation) (Sec61β; DC2.4 cells incubated with bOVA): interacts
- antigenicity for stimulation of CD8+ OT-I T cells (IL-2 production) (OT-I CD8+ T cells): equally antigenic
- bOVA taken up by cells recovered as trypsin-resistant bOVA from the microsomal fraction (DC2.4 cells): ≥ 70%
